{"source": "paper PMC10338343", "about": "“Relaxed targeting rules help PIWI proteins silence transposons”", "biological_target": "MIWI (Mus musculus, UniProt Q9JMB7 1-862)", "sequence (Q9JMB7 whole entry)": "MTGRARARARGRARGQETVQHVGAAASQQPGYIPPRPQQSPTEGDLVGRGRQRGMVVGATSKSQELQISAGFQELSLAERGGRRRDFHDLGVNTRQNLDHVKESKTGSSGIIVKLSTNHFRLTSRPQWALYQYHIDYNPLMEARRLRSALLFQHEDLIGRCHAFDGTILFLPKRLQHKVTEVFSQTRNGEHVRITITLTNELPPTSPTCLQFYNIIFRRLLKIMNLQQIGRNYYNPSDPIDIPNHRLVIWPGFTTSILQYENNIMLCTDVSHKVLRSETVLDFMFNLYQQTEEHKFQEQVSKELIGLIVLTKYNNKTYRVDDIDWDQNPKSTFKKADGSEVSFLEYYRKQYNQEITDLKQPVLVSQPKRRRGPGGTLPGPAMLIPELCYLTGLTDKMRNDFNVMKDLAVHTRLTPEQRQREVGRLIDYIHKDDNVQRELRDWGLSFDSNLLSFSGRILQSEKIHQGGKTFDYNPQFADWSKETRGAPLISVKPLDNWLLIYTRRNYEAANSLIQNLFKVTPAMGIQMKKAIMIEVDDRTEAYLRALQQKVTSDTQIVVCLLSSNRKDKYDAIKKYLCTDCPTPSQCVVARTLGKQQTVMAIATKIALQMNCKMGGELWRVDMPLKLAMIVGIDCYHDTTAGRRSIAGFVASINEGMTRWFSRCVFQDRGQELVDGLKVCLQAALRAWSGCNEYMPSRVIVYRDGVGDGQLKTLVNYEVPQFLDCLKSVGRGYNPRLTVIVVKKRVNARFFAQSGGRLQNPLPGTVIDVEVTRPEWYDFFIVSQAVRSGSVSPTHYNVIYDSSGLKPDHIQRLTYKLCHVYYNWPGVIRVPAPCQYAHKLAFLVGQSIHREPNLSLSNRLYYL", "test": "double-filter binding; piRNA-1 guide; 3.5 mM Mg2+; RBNS: 25 mM HEPES-KOH pH 7.9, 110 mM KOAc, 3.5 mM MgOAc, 0.01% Triton X-100, 2 mM DTT, 10% glycerol, 2.5 mg/ml BSA, 0.5 mg/ml yeast tRNA, 100 nM RNA library, 33 C 2 h; double-filter: 30 mM HEPES-KOH pH 7.5, 120 mM KOAc, 3.5 mM MgOAc, 2 mM DTT, 0.01% Triton X-100, 0.1 nM target, 33 C 2 h", "conditions": "protein: recombinant, tags: SNAP, 3xFlag, label: 5' 32P"}
{"binder": "AAAAAAAAAAAAAAAAAAAAUACUACCUCA (ssRNA, 5' monophosphate)", "note": "[piRNA-1 g2-g10 target]", "values": [{"measurement": "Kd", "setting": "target pairs to guide g2-g10", "value": "0.014 ± 0.009", "unit": "nM"}]}
{"binder": "AAAAAAAAAAAAAAACAACCUACAAAAAAA (ssRNA, 5' monophosphate)", "note": "[piRNA-1 g8-g16 target]", "values": [{"measurement": "Kd", "setting": "target pairs to guide g8-g16", "value": "0.08 ± 0.02", "unit": "nM"}]}
